Here are results for 1 molecule from patent publication US20070027089A1.

The test deals with amyloid precursor protein APP695 in HEK 293-APP cells (human), P05067. Description: cell-based or functional assay.

Where no end group is shown, it is not given here. [ ]: non-standard residue; d: D form. Ahx = NCCCCCC(=O)O

amyloid precursor protein APP695 in HEK 293-APP cells (human), P05067, sequence (P05067 18-770): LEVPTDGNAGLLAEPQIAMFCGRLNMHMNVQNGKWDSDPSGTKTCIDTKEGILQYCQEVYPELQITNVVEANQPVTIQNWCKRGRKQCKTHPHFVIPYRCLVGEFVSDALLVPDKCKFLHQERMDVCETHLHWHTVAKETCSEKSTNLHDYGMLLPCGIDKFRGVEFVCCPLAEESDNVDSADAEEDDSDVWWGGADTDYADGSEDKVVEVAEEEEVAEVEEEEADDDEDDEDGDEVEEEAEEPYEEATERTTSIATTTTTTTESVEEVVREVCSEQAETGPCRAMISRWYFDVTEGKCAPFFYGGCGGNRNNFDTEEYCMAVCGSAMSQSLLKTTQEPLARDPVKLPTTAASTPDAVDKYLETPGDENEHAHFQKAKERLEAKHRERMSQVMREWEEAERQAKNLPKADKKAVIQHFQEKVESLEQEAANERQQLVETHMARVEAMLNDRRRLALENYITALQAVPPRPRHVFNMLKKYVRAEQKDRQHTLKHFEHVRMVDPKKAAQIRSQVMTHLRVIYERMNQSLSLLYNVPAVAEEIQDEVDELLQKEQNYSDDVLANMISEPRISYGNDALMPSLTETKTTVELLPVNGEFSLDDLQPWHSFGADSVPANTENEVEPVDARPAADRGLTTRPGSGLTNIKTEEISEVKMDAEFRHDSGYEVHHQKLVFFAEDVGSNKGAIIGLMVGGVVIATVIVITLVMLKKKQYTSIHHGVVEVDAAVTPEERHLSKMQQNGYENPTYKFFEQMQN

B1: 6-aminohexanoic acid-c-Sub M ΔN3C1 (NH2-(CH2)5-CO-Cys-Ile-Gln-Ile-His-Phe-NH2) (peptide)
peptide: [Ahx]CIQIHF-NH2
modifications: N-terminus assumed
SMILES: CC[C@H](C)[C@H](NC(=O)[C@H](CCC(N)=O)NC(=O)[C@@H](NC(=O)[C@H](CS)NC(=O)CCCCCN)[C@@H](C)CC)C(=O)N[C@@H](Cc1c[nH]cn1)C(=O)N[C@@H](Cc1ccccc1)C(N)=O
Consider B1, for which the reduction of Aβ released from HEK293-APP cells (sandwich ELISA) at 6.25 µM peptide turned out to be 70%.
